# B1: TPR t1 (parent)
# chain: GACCAAUCUGCCCUCAGAGCUCGAGAACAUCUUCGGAUGCAGAGGAGGCAGGCUUCGGUGGCGCGAUAGCGCCAACGUCCUCAACCUCCAAUGCAUCCCACCACAUGAUGAUGCCUGAAGAGCCUUGGUUUUUUG
# Variants of: B1
# Assay: polymerase ribozyme fitness, log enrichment relative to wild type (log ratio); higher = more active; in vitro selection for triplet polymerase activity
# Procedure, shortened: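 PCR was used to build mutant libraries for each subunit of a heterodimeric triplet polymerase ribozyme, which were then transcribed. A single in vitro selection round, in triplicate, used a frozen incubation at −7 °C and recovered extended constructs by gel excision, streptavidin beads and RT-PCR. Fitness is the logarithm of genotype enrichment relative to wild-type enrichment, averaged over replicates with inverse-variance weights. The logarithm is base 2, and after Illumina sequencing only genotypes with ≥10 input reads and ≥1 read per output were kept.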
row,Variant,polymerase ribozyme fitness (log ratio)
1,G52C C79G,-0.316
2,C53A G93C,-0.396
3,C53G U78C C80U A91G U92C C124A,-5.02
4,C53A U55A C70U,-0.287
5,C53G U87G C97U G117U,-4.2
6,G52C A83G,-1.31
7,G52A G57C,-0.388
8,G52U G60A C104U C115G A121C,-4.03
9,G52U G117A,-1.81
10,G52U G61U,-0.708
11,G52U G61A,-1.14
12,G52U U109C A118U,-6.47
13,C53A G69C,-1.38
14,G52A C76U,-0.303
15,G52C C62U C72A C82U A119U,-1.34
16,G52U G61C U130G,-1.58
17,G52U U112A U126G,-0.97
18,G52A G113A,-1.37
19,C53G G63C G93C C114A,-3.01
20,G52A G57A G127C,-2.09
21,C53A C56U,-0.113
22,C53A G60U,-0.129
23,C53A G60C,-2.24
24,C53G C104U A111G,0.815

row,Variant,polymerase ribozyme fitness (log ratio)
1,G52U C72G C79A G110A C123A,-3.69
2,G52U G60C,-0.445
3,G52U G60A,-0.943
4,C53G C62A C70U U78G,-2.63
5,G52C G60U,-1.44
6,G52U C73G A84U,-1.78
7,G52U G69U C79A U87C U129G,-1.06
8,G52U C94U U106A A119G,-0.397
9,G52A G57A A66U G127C,-3.31
10,C53A G63A U78C G110U,-3.53
11,G52U C53A C73U,-1.08
12,G52U C56G C89U,-1.53
13,C53G C72A U112G G113C,-7.66
14,G52C U129C,-1.64
15,G52A G69A G93U C123U,-3.78
16,G52C U125G,-1.59
17,G52U G61C C123A,-0.217
18,C53A C56A G58C A68U C80A,-6.56
19,C53A G71C C85A G117A U125G,-5.65
20,C53G G57U G61A,-0.189
21,C53G G63C,-1.3
22,G52U C76G C97U,-2.35
23,C53G G69A,-3.62
24,G52A G120U,-0.416

row,Variant,polymerase ribozyme fitness (log ratio)
1,G52C C85U G117C,-5.83
2,G52C G113A C124U,-1.69
3,C53A C82G A84G,-0.378
4,C53A U78C C82U C102U,-0.997
5,G52U G77U G117U U126C,-5.18
6,G52C U116A G120A,-2.46
7,C53A A105U,-2.72
8,C53G G117A U132A,-1.03
9,G52C C82A U112G,-1.29
10,C53G G107A,-5.6
11,C53G C70U,-1.16
12,G52C U55C U78C C82U,-0.756
13,G52U C72U C104A G127C,-3.82
14,C53G C64A U112G C124A,-6.11
15,C53A G127U U129A,-0.623
16,G52U C64U U116C,-2.49
17,C53G G61A U106G G110C C124U,-6.24
18,G52C G61C C114G G120U,-5.46
19,G52A U55A A74U G120C C123A C124U G135A,-0.0228
20,C53G C97U A118U,-0.0977
21,C53G G57C G63C,-0.44
22,G52C C53G G120U,-2.13
23,C53G C80G,-3.16
24,C53G G120A G127U,-0.0103

row,Variant,polymerase ribozyme fitness (log ratio)
1,G52C C115A A118U U131A,-2.68
2,G52C,-0.632
3,G52U,-0.82
4,C53A G61C U116C,-5.85
5,C53A G120C,0.974
6,G52C G57C C79G C86U C115U,-1.83
7,C53G C56A G60A A111G,-0.505
8,C53A G61C G110A A119U U133A,-4.96
9,G52U G58A C79G C85A G107U G113A,-6.66
10,C53A U112A,0.632
11,C53G A66C A83G A84U,-3.08
12,C53A C56A A90G C97A U132C,-3.46
13,G52C C124U,1.26
14,G52C G71U U132A,-0.43
15,G52U C56A C99U,-4.58
16,C53A C85G,-1.17
17,C53G C89U,-0.681
18,G52A C80U,-1.94
19,G52A G69U G71U C102A,-4.53
20,C53G G107U C123G,-2.73
21,C53A G63A U78C,-2.46
22,G52C G69U C99U,-1.34
23,C53A G71A,-0.89
24,G52A G61C,-4.29

row,Variant,polymerase ribozyme fitness (log ratio)
1,G52C C86A C114U G120U,-5.89
2,C53A C73A,-0.0116
3,C53G C82A C94U U130G,-0.77
4,C53A C70U U78C C86G,-1.12
5,G52U G57U G128C,-4.79
6,G52U G69U G71C,-1.06
7,G52C G61A C62U C85U U96G G117A,-4.79
8,G52U A66U,-1.95
9,C53A U106G A121U,0.877
10,G52C C123G,0.381
11,G52A G60U,-2.42
12,G52U U129G,-2.57
13,G52U G113U,-3.87
14,C53G C56G C82G C85A C94G,-2.28
15,G52U G117U U133A,-3.76
16,C53A G60A C94A G120A,0.047
17,G52C C70A G110C,-6.64
18,C53G G58C C62A C85U G113A,-2.93
19,C53A U112G C124A,0.889
20,G52A G69C C85A G122A U133A,-4.36
21,C53A G117A,0.856
22,G52U G63U,-0.651
23,C53G G61C,-1.1
24,C53A U59C A105U,-2.61

row,Variant,polymerase ribozyme fitness (log ratio)
1,C53A G135U,-0.659
2,C53A G127U,-0.16
3,C53G C56U,-0.756
4,C53A G61U C82G A84G,-0.925
5,C53A A84U U125A,-1.27
6,C53A C72G U92G,-2.94
7,C53G,-0.355
8,C53A,0.0557
9,C53G U116C,-1.68
10,C53A C80U U106A G135U,-3.96
11,G52U G63A C101G C114G,-6.25
12,G52C C72A C94U G128A,-2.33
13,G52C G58A C79A C85U,-2.78
14,C53G C64U G127U,-1.02
15,G52C C72A U78C,0.275
16,C53G C72U,-1.04
17,G52U U81A,-2.79
18,G52U U106A,-0.189
19,G52A G71A U96G,-1.57
20,G52C G69U C97A,-2.26
21,G52C G58A,-1.15
22,C53G C123U,0.236
23,G52U G93U,-1.93
24,C53G C114U,-2.03

row,Variant,polymerase ribozyme fitness (log ratio)
1,C53A A100G G113A G120C,-4.41
2,G52A U55A G120C C123A C124U G135A,1.07
3,G52C C73G C82A,-1.97
4,C53G C70G C104U C114U G120U C123G C124A,-6.46
5,G52U G63A G120U,-1.08
6,C53G G61C A83G C88G C104A,-4.92
7,C53G G110C,-4.65
8,G52U U125G,-1.12
9,G52U U125A,-0.984
10,C53A G71A C124A,0.149
11,G52A C82U,-0.917
12,C53A G113C,-2.28
13,G52C G63A C102U C104A,-3.27
14,G52C A95G G120C U125A,-0.335
15,C53G C64U G110U,-3.95
16,C53A G71A C85A G135U,-4.02
17,C53G A90G,0.537
18,G52A U55A G61A C97U C101G U125G,-2.53
19,C53A G120U G122C U125A,-0.563
20,G52U G77U A90U A121U U130A,-0.805
21,C53G G63A C94A C115G G128C,-6.79
22,G52A G69C C72U A95C,-1.66
23,C53A A68G,-2.61
